Square brackets hold non-standard residues; d marks the D form. Ends that are not written are not given here. Peptide text beside a SMILES is read from it. pS = N[C@@H](COP(=O)(O)O)C(=O)O
T1: 14-3-3ζ (Homo sapiens, UniProt P63104)
T1 sequence (P63104 1-245): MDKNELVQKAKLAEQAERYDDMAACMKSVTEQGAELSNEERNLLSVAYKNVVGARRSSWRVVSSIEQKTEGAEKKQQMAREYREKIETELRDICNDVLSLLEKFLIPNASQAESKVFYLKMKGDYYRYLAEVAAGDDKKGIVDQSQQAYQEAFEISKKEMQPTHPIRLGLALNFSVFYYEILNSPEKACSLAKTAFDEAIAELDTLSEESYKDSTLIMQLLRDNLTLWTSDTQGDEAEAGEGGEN

T2: 14-3-3ζ (UniProt P63104 1-245)
T2 construct: 14-3-3 protein, isoform zeta; also called 14-3-3 isoform ζ
T2 sequence (looked up): T1 sequence (P63104 1-245)

T3: SPF45 UHM (residues 301–401) (UniProt Q96I25 301-401)
T3 construct: SPF45, also known as RBM17, UHM domain, residues 301-401; The His6-GST tags (vector pETM30) are TEV-cleavable; also called RBM17 UHM; source: E. coli BL21 (DE3)pLysS, purified (Ni-NTA, SEC)
T3 sequence (looked up): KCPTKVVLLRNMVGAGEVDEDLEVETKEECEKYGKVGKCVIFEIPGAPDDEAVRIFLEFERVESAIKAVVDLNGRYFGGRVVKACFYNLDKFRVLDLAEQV

B1: Atx1_pS_ULM (peptide)
peptide: ATRKRRW[pS]A
notes: Ataxin-1 (Atx1), residues 769-777, S776 phosphorylated; also called phosphorylated Atx1 ULM; source: synthetic peptide; bought: Pepceuticals Limited
B2: Atx1_pS_ULM_PE (peptide)
peptide: ATRKRRW[pS]APE
notes: Ataxin-1 (Atx1), residues 769-779, S776 phosphorylated; source: synthetic peptide; bought: Pepceuticals Limited
B3: Atx1_S_ULM_PE (peptide)
peptide: ATRKRRWSAPE
notes: Ataxin-1 (Atx1), residues 769-779; source: synthetic peptide; bought: Pepceuticals Limited
B4: Atx1_D_ULM_PE (peptide)
peptide: ATRKRRWDAPE
notes: also called S776D peptide; S776D mutant peptide; source: synthetic peptide; bought: Pepceuticals Limited
B5: Atx1_A_ULM_PE (peptide)
peptide: ATRKRRWAAPE
notes: also called S776A-mutated peptide; S776A mutant peptide; source: synthetic peptide; bought: Pepceuticals Limited

Assays:
14-3-3ζ [1] = biological target: T1, 14-3-3ζ; experiment: ITC binding of Atx1 ULM peptides to 14-3-3ζ; conditions: 50 mM sodium phosphate buffer (pH 7.0), 150 mM NaCl, 5 mM DTT, 295 K, average of three measurements, n.b. = binding not detectable
Description: Since S776 phosphorylated Atx1 binds also the 14-3-3 protein [17], we compared the affinity of this interaction. We used a peptide C-terminally extended as compared to the one previously designed to probe interaction with U2AF65 UHM so to include P778 and encompass the complete 14-3-3 ‘mode II’ recognition motif (Atx1_pS_ULM_PE, residues 769–779). We compared the affinities of this peptide with the non-phosphorylated version (Atx1_S_ULM_PE) and with the shorter Atx1_pS_ULM peptide. […] We chose to work with isoform ζ (14-3-3ζ) since it is present in high concentrations in the neuronal nucleus of all the major affected areas in SCA1 brains.
All the proteins were dialyzed against 50 mM sodium phosphate buffer (pH 7.0), 150 mM NaCl and 5 mM DTT. Solutions of 0.025–0.4 mM UHM proteins in the cell were titrated by injections of a total of 295 µl of 0.25–3.9 mM peptide in the syringe in 21 aliquots. The concentrations of the 14-3-3ζ and ATX1 ULM ligands were adjusted to 0.012–0.037 mM and 0.1–0.4 mM respectively. Data were processed with the software MicroCal Origin version 5.0 provided by the manufacturer. All dissociation constants were averages of three measurements.

U2AF65 UHM, 369-475 = U2AF65 UHM, 369-475 (UniProt P26368); experiment: NMR 15N-HSQC titration; conditions: reference: unphosphorylated Atx1 ULM peptide; sites S776
Chain of U2AF65 UHM, 369-475 (P26368 whole entry, looked up, the tested form may be a part, one chain of several): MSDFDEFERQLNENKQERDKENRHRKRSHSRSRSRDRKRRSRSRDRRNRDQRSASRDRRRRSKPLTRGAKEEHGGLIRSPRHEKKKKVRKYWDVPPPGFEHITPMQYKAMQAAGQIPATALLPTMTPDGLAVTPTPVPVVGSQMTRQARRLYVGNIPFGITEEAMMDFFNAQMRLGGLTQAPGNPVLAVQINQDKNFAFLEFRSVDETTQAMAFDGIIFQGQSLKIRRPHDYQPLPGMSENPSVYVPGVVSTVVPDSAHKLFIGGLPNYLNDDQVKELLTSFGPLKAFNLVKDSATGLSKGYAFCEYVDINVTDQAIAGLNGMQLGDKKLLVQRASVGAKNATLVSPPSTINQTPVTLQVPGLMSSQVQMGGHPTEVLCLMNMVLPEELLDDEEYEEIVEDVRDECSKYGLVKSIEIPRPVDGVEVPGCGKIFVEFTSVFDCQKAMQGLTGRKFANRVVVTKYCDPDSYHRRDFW

[2] = biological target: T4, U2AF65 UHM (residues 369–475) (UniProt P26368 369-475); experiment: ITC; 20 mM sodium phosphate buffer (pH 6.4), 30 mM NaCl, 5 mM DTT; 295 K; protein in the cell, peptide in the syringe; conditions: both partners purified
T4 construct: U2AF65 (splicing factor U2AF 65 kDa subunit), UHM domain, residues 369-475; The His6-GST tags (vector pETM30) are TEV-cleavable; 15N-labelled for the NMR experiments, unlabelled for ITC; also called U2AF65 UHM domain; source: E. coli BL21 (DE3)pLysS, purified (Ni-NTA, SEC)
T4 sequence (P26368 369-475, one chain of several): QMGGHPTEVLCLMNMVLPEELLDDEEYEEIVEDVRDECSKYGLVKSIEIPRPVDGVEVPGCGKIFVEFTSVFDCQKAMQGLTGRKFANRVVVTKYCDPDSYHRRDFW

[3] = biological target: T4, U2AF65 UHM (residues 369–475); experiment: ITC; 50 mM sodium phosphate buffer (pH 7.0), 150 mM NaCl, 5 mM DTT; 295 K; protein in the cell, peptide in the syringe; single-site model; averages of three measurements; conditions: both partners purified
14-3-3ζ [4] = biological target: T2, 14-3-3ζ; experiment: as above; conditions: both partners purified
[5] = biological target: T3, SPF45 UHM (residues 301–401); experiment: as above; conditions: both partners purified

Kd, 14-3-3ζ (ITC) (14-3-3ζ [1])	Kd [3] [µM]	Kd [5] [µM]	also measured	Molecule
n.b. ^c	–	–	–	ATRKRRWSAPE [Atx1_S_ULM_PE]
–	–	–	binding against the reference (U2AF65 UHM, 369-475): same	Ataxin-1 (Atx1) 769-777 (from UniProt P54253) pS776 Atx1 ULM peptide
n.b.	–	–	–	ATRKRRWDAPE [Atx1_D_ULM_PE]
n.b.	–	–	–	ATRKRRWAAPE [Atx1_A_ULM_PE]
–	–	–	Kd (14-3-3ζ [1]): 0.4 ± 0.03 µM	C[C@H](N)C(=O)N[C@H](C(=O)N[C@@H](CCCNC(=N)N)C(=O)N[C@@H](CCCCN)C(=O)N[C@@H](CCCNC(=N)N)C(=O)N[C@@H](CCCNC(=N)N)C(=O)N[C@@H](Cc1c[nH]c2ccccc12)C(=O)N[C@@H](COP(=O)(O)O)C(=O)N[C@@H](C)C(=O)N1CCC[C@H]1C(=O)N[C@@H](CCC(=O)O)C(=O)O)[C@@H](C)O [Atx1_pS_ULM_PE] (H-ATRKRRW[pS]APE-OH)
–	18.4 ± 0.7	–	Kd [2]: 0.6 ± 0.08 µM; Kd (14-3-3ζ [4]): 1 ± 0.1 µM	B1
–	35.8 ± 1.3	40 ± 1.6	–	B2
–	9.2 ± 0.3	23.4 ± 1.5	–	B3
–	6.4 ± 0.7	0.9 ± 0.07	–	B4
–	8.9 ± 0.4	22.5 ± 0.6	–	B5

Source: article PMC2791216, “Phosphorylation of S776 and 14-3-3 Binding Modulate Ataxin-1 Interaction with Splicing Factors” (PLoS ONE, 2009)
